For this assay, the target named is IL-15 (Homo sapiens, UniProt P40933).
Sequence of IL-15 (P40933 49-162): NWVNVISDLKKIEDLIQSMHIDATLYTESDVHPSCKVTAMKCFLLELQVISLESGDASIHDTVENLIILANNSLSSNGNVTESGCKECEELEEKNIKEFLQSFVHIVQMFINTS

B1: rILR-Fc (IL-15Rα-Sushi-Fc) Sushi (protein)
chain: TRGITCPPPMSVEHADIWVKSYSLYSRERYICNSGFKRKAGTSSLTECVLNKATNVAHWTTPSLKCIRDPA
modifications: Fc fusion
As to B1, binding was characterised by a dissociation constant (Kd) of 0.24 nM.

For the origin of these results see article PMC12114846 (2025).
